Reference: paper doi:10.1101/827691

Target: α1-subCD3 as used in cross-linking and NMR (apparent molecular weight 27 kDa) (human) (UniProt P05023)
Assay: cross-linking

N-terminally His6-tagged FGF2 (18 kDa isoform), wild type (from UniProt P09038-2 1-155) (natural protein)
stoichiometry N (FGF2 per α1-subCD3): 1
